# Results: patent US20240025959A1 (UNIVERSITY OF SOUTHERN CALIFORNIA, published 2024)
# B1: ATG9A (human) (other, UniProt Q7Z3C6 1-839, looked up)
# chain: MAQFDTEYQRLEASYSDSPPGEEDLLVHVAEGSKSPWHHIENLDLFFSRVYNLHQKNGFTCMLIGEIFELMQFLFVVAFTTFLVSCVDYDILFANKMVNHSLHPTEPVKVTLPDAFLPAQVCSARIQENGSLITILVIAGVFWIHRLIKFIYNICCYWEIHSFYLHALRIPMSALPYCTWQEVQARIVQTQKEHQICIHKRELTELDIYHRILRFQNYMVALVNKSLLPLRFRLPGLGEAVFFTRGLKYNFELILFWGPGSLFLNEWSLKAEYKRGGQRLELAQRLSNRILWIGIANFLLCPLILIWQILYAFFSYAEVLKREPGALGARCWSLYGRCYLRHFNELEHELQSRLNRGYKPASKYMNCFLSPLLTLLAKNGAFFAGSILAVLIALTIYDEDVLAVEHVLTTVTLLGVTVTVCRSFIPDQHMVFCPEQLLRVILAHIHYMPDHWQGNAHRSQTRDEFAQLFQYKAVFILEELLSPIVTPLILIFCLRPRALEIIDFFRNFTVEVVGVGDTCSFAQMDVRQHGHPQWLSAGQTEASVYQQAEDGKTELSLMHFAITNPGWQPPRESTAFLGFLKEQVQRDGAAASLAQGGLLPENALFTSIQSLQSESEPLSLIANVVAGSSCRGPPLPRDLQGSRHRAEVASALRSFSPLQPGQAPTGRAHSTMTGSGVDARTASSGSSVWEGQLQSLVLSEYASTEMSLHALYMHQLHKQQAQAEPERHVWHRRESDESGESAPDEGGEGARAPQSIPRSASYPCAAPRPGAPETTALHGGFQRRYGGITDPGTVPRVPSHFSRLPLGGWAEDGQSASRHPEPVPEEGSEDELPPQVHKV
# notes: Transmembrane protein; co-IP from RIPA lysates; Tagged and endogenous human forms kept under one id; also called Flag-ATG9A; HA-ATG9A
# B2: STX6 (other, human, UniProt O43752 1-255, looked up)
# chain: MSMEDPFFVVKGEVQKAVNTAQGLFQRWTELLQDPSTATREEIDWTTNELRNNLRSIEWDLEDLDETISIVEANPRKFNLDATELSIRKAFITSTRQVVRDMKDQMSTSSVQALAERKNRQALLGDSGSQNWSTGTTDKYGRLDRELQRANSHFIEEQQAQQQLIVEQQDEQLELVSGSIGVLKNMSQRIGGELEEQAVMLEDFSHELESTQSRLDNVMKKLAKVSHMTSDRRQWCAIAILFAVLLVVLILFLVL
# notes: also called syntaxin 6
# B3: VAMP7 (other, human, UniProt P51809 1-220, looked up)
# chain: MAILFAVVARGTTILAKHAWCGGNFLEVTEQILAKIPSENNKLTYSHGNYLFHYICQDRIVYLCITDDDFERSRAFNFLNEIKKRFQTTYGSRAQTALPYAMNSEFSSVLAAQLKHHSENKGLDKVMETQAQVDELKGIMVRNIDLVAQRGERLELLIDKTENLVDSSVTFKTTSRNLARAMCMKNLKLTIIIIIVSIVFIYIIVSPLCGGFTWPSCVKK
# B4: VAMP8 (other, human, UniProt Q9BV40 1-100, looked up)
# chain: MEEASEGGGNDRVRNLQSEVEGVKNIMTQNVERILARGENLEHLRNKTEDLEATSEHFKTTSQKVARKFWWKNVKMIVLICVIVFIIILFIVLFATGAFS
# B5: STX8 (other, human, UniProt Q9UNK0 1-236, looked up)
# chain: MAPDPWFSTYDSTCQIAQEIAEKIQQRNQYERKGEKAPKLTVTIRALLQNLKEKIALLKDLLLRAVSTHQITQLEGDRRQNLLDDLVTRERLLLASFKNEGAEPDLIRSSLMSEEAKRGAPNPWLFEEPEETRGLGFDEIRQQQQKIIQEQDAGLDALSSIISRQKQMGQEIGNELDEQNEIIDDLANLVENTDEKLRNETRRVNMVDRKSASCGMIMVILLLLVAIVVVAVWPTN
# B6: RAB8A (other, human, UniProt P61006 1-207, looked up)
# chain: MAKTYDYLFKLLLIGDSGVGKTCVLFRFSEDAFNSTFISTIGIDFKIRTIELDGKRIKLQIWDTAGQERFRTITTAYYRGAMGIMLVYDITNEKSFDNIRNWIRNIEEHASADVEKMILGNKCDVNDKRQVSKERGEKLALDYGIKFMETSAKANINVENAFFTLARDIKAKMDKKLEGNSPQGSNQGVKITPDQQKRSSFFRCVLL
# B7: STX7 (other, human, UniProt O15400 1-261, looked up)
# chain: MSYTPGVGGDPAQLAQRISSNIQKITQCSVEIQRTLNQLGTPQDSPELRQQLQQKQQYTNQLAKETDKYIKEFGSLPTTPSEQRQRKIQKDRLVAEFTTSLTNFQKVQRQAAEREKEFVARVRASSRVSGSFPEDSSKERNLVSWESQTQPQVQVQDEEITEDDLRLIHERESSIRQLEADIMDINEIFKDLGMMIHEQGDVIDSIEANVENAEVHVQQANQQLSRAADYQRKSRKTLCIIILILVIGVAIISLIIWGLNH
# B8: Beclin 2/ECD (ECD domain alone) (other)
# chain: INCFTATFEIWVEGPLGVINNFRLGRLPTVRVGWNEINTAWGQAALLLLTLANTIGLQFQRYRLIPCGNHSYLKSLTDDRTELPLFCYGGQDVFLNNKYDRAMVAFLDCMQQFKEEAEKGELGLSLPYGIQVETGLMEDVGGRGECYSIRTHLNTQELWTKALKFMLINFKWSLIWVASRYQK
# notes: HA-tagged truncation
# B9: Beclin 2/ΔECD (ECD domain deletion fragment, residues 1-248) (other)
# chain: MSSIRFLCQRCHQALKLSGSSESRSLPAAPAPTSGQAEPGDTREPGVTTREVTDAEEQQDGASSRSPPGDGSVSKGHANIFTLLGELGAMHMLSSIQKAAGDIFDIVSGQAVVDHPLCEECTDSLLEQLDIQLALTEADSQNYQRCLETGELATSEDEAAALRAELRDLELEEARLVQELEDVDRNNARAAADLQAAQAEAAELDQQERQHYRDYSALKRQQLELLDQLGNVENQLQYARVQRDRLKE
# notes: HA-tagged truncation; also called Beclin 2/AECD
# Legend:
# ULK1 = biological target: T1, ULK1 (human, UniProt O75385 1-1050); experiment: co-IP with anti-Flag beads and immunoblot; 293T cells transfected with the indicated Flag-tagged plasmid (FIG. 12B)
# T1 construct: also called HA-ULK1
# T1 sequence (looked up): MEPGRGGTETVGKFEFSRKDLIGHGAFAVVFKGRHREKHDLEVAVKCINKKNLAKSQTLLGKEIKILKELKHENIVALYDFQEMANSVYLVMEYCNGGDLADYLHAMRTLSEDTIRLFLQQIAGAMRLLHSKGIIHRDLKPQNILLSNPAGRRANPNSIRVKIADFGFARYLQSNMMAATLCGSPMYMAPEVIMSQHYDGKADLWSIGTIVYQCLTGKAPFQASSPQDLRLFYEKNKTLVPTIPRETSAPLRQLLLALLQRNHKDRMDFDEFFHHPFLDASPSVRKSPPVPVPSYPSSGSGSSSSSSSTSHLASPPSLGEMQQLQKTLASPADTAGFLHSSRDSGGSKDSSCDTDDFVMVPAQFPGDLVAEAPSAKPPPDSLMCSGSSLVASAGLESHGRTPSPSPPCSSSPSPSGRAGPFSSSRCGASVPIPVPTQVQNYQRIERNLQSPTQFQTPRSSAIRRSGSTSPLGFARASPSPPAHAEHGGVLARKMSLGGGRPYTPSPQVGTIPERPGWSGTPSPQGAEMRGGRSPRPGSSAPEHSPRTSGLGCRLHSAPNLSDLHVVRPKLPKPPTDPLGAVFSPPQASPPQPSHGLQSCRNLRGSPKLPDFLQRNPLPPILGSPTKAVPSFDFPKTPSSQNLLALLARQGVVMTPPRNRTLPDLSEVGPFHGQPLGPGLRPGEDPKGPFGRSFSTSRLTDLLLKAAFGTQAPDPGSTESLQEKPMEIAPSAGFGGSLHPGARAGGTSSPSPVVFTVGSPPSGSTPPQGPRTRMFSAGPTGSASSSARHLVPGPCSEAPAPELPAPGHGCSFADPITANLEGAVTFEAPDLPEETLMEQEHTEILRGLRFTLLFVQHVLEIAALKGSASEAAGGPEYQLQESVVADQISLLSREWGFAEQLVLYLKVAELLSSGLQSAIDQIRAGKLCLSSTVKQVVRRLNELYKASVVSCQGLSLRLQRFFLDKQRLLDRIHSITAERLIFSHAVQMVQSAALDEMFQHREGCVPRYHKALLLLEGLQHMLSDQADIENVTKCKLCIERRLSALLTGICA
# Procedure: Data are representative of at least three independent experiments.
# The secondary antibody (Veriblot for IP detection reagent HRP) that only recognized native IgG but not denatured IgG was applied for immunoblotting of proteins in immunoprecipitates. For immunoprecipitation of Flag-tagged proteins, cell lysates were incubated with anti-Flag beads (Sigma) at 4° C. overnight. The beads were washed four times with RIPA lysis buffer, and immunoprecipitates were eluted with 2×SDS loading buffer. Immunoblotting was performed by loading the samples on SDS-PAGE gels, conducting electrophoresis, transferring the samples to PVDF membranes (Bio-Rad), and then incubating the membranes with the indicated antibodies. For all immunoblots, the LumiGLO Chemiluminescent Substrate System from KPL (Gaithersburg, MD) was used for protein detection.
# [1] = biological target: T2, Beclin 2 (human, full length) (human, UniProt A8MW95 1-431); experiment: co-IP with anti-Flag beads and immunoblot; 293T cells co-transfected with HA-Beclin 2 and a Flag-tagged plasmid (FIG. 13C)
# T2 construct: All tagged and endogenous human forms are kept under this one id; the form used is named under assay; also called BECN2; Flag-Beclin 2
# T2 sequence: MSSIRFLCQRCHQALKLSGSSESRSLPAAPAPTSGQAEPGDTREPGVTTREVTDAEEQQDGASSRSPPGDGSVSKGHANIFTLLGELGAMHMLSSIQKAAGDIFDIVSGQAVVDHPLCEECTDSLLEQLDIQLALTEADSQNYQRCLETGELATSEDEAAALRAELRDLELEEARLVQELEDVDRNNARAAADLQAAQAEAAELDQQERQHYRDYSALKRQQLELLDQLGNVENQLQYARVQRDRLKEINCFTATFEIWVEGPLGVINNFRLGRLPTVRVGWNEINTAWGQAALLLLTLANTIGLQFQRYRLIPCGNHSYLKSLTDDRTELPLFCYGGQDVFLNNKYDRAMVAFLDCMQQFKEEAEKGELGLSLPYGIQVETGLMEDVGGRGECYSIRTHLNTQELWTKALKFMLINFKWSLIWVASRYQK
# [2] = biological target: T2, Beclin 2 (human, full length); experiment: co-IP with anti-Flag beads and immunoblot; HEK293T cells co-transfected with HA-Beclin 2 and Flag-tagged SNARE or RAB proteins (FIG. 32A)
# Procedure: Whole cell lysates obtained 24 h post-transfection or via ligand stimulation were obtained using RIPA lysis buffer and shook on ice for 15 min. The HEK293T cell lysates were immunoprecipitated with anti-Flag conjugated beads (BioLegend) at 4° C. overnight. […] The beads were washed five times with RIPA lysis buffer, and immunoprecipitates were eluted with 2×SDS loading buffer and subjected to SDS-PAGE gel electrophoresis, followed by immunoblotting. The secondary antibody (Veriblot for IP detection, HRP-conjugated) that only recognized native IgG but not denatured IgG was applied for immunoblotting of endogenous proteins in immunoprecipitates.
# [3] = biological target: T3, AIM2 (human, full length) (human, UniProt O14862 1-343); experiment: co-IP with anti-Flag beads; HA-tagged Beclin 2 truncations co-transfected with Flag-AIM2 (FIG. 25K)
# T3 construct: also called Flag-AIM2; GFP-AIM2
# T3 sequence (looked up): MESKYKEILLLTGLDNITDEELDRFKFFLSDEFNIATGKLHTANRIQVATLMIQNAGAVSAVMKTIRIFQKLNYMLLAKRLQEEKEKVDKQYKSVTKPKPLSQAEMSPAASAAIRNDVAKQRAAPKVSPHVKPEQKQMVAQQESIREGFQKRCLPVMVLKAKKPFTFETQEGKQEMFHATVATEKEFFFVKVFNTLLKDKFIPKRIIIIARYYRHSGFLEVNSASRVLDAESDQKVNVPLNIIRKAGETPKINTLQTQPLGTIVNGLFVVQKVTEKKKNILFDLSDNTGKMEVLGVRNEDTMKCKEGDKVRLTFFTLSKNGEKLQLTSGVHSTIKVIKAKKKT
# Procedure: (§1) Cell lysates were immunoprecipitated with anti-Flag beads and immunoblotted using indicated antibodies. […] Cell lysates were immunoprecipitated with anti-Flag beads and immunoblotted using indicated antibodies.
# (§2) Whole cell lysates obtained 24 h post-transfection or via ligand stimulation were obtained using RIPA lysis buffer and shook on ice for 15 min. The HEK293T cell lysates were immunoprecipitated with anti-Flag conjugated beads (BioLegend) at 4° C. overnight.
# [4] = biological target: T4, NLRP3 (human, full length) (human, UniProt Q96P20 1-1036, limits assumed); experiment: co-IP with anti-Flag beads; HA-tagged Beclin 2 truncations co-transfected with Flag-NLRP3 (FIG. 25L)
# T4 construct: also called Flag-NLRP3; HA-NLRP3
# T4 sequence (Q96P20 whole entry, the tested form may be a part): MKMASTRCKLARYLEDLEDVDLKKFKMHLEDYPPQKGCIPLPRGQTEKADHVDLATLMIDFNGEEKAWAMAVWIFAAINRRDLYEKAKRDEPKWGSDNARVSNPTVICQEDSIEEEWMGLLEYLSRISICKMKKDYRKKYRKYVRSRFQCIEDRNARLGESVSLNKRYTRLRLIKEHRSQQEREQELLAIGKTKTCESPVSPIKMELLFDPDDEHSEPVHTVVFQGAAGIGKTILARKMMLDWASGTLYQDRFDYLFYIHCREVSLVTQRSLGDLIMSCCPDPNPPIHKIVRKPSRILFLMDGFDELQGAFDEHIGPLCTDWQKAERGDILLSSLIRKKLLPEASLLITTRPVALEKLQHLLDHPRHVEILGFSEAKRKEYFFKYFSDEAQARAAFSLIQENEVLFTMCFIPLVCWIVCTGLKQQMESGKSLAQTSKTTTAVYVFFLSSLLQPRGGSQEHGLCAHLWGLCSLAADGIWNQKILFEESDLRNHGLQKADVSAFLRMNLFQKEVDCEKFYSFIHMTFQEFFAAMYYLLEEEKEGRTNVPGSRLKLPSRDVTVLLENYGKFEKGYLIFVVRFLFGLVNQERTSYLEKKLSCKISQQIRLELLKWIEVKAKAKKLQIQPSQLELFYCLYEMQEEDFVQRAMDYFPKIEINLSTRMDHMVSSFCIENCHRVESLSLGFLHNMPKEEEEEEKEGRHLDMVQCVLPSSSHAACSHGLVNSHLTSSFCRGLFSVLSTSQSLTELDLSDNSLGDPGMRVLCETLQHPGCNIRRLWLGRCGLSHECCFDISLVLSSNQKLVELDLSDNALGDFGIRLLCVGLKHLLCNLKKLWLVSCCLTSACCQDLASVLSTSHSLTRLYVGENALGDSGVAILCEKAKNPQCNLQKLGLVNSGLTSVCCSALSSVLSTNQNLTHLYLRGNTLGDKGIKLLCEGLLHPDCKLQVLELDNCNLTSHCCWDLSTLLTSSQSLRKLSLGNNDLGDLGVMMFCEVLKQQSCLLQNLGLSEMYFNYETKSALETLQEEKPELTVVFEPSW
# Procedure: as §1, §2
binder,measurement,setting,value
B1,binding result,ULK1,binds
B2,binding result,[1],binds
B3,binding result,[2],binds
B4,binding result,[1],binds
B5,binding result,[1],binds
B6,binding result,[1],binds
B7,binding result,[1],binds
B8,binding result,[3],no binding
same,binding result,[4],no binding
B9,binding result,[3],no binding
same,binding result,[4],no binding
